Data from article doi:10.1101/2024.10.01.616040 (bioRxiv, 2024).

Assays:
His-TEV-ORF1p (human) = His-TEV-ORF1p (human) (UniProt Q9UN81); experiment: mass photometry
mass photometry = target: the molecule itself; experiment: mass photometry

percent of counts that are monomers (His-TEV-ORF1p (human)) [%]	Molecule	stoichiometry N (mass photometry)
30	His-TEV-ORF1p (from UniProt Q9UN81 1-338) (natural protein)	–
–	K3A/K4A-ORF1p (natural protein) MGAAQNRKTGNSKTQSASPPPKERSSSPATEQSWMENDFDELREEGFRRSNYSELREDIQTKGKEVENFEKNLEECITRITNTEKCLKELMELKTKARELREECRSLRSRCDQLEERVSAMEDEMNEMKREGKFREKRIKRNEQSLQEIWDYVKRPNLRLIGVPESDVENGTKLENTLQDIIQENFPNLARQANVQIQEIQRTPQRYSSRRATPRHIIVRFTKVEMKEKMLRAAREKGRVTLKGKPIRLTADLSAETLQARREWGPIFNILKEKNFQPRISYPAKLSFISEGEIKYFIDKQMLRDFVTTRPALKELLKEALNMERNNRYQPLQNHAKM	6
–	ΔStammer-ORF1p (natural protein) MGKKQNRKTGNSKTQSASPPPKERSSSPATEQSWMENDFDELREEGFRRSNYSELREDIQTKGKEVENFEKNLEECITRITNTEKCLKELKTKARELREECRSLRSRCDQLEERVSAMEDEMNEMKREGKFREKRIKRNEQSLQEIWDYVKRPNLRLIGVPESDVENGTKLENTLQDIIQENFPNLARQANVQIQEIQRTPQRYSSRRATPRHIIVRFTKVEMKEKMLRAAREKGRVTLKGKPIRLTADLSAETLQARREWGPIFNILKEKNFQPRISYPAKLSFISEGEIKYFIDKQMLRDFVTTRPALKELLKEALNMERNNRYQPLQNHAKM	6
